The values below come from patent publication US20100240066A1 (MCGILL UNIVERSITY, published 2010).

Where no end group is shown, it is not given here.

First the molecules themselves.
T1: VE-cadherin/Fc chimeric protein (UniProt P33151 48-593)
T1 construct: Bought from R&D Systems; also called vascular endothelial (VE)-cadherin/Fc chimeric protein; not shown: Fc part not described
T1 sequence (looked up): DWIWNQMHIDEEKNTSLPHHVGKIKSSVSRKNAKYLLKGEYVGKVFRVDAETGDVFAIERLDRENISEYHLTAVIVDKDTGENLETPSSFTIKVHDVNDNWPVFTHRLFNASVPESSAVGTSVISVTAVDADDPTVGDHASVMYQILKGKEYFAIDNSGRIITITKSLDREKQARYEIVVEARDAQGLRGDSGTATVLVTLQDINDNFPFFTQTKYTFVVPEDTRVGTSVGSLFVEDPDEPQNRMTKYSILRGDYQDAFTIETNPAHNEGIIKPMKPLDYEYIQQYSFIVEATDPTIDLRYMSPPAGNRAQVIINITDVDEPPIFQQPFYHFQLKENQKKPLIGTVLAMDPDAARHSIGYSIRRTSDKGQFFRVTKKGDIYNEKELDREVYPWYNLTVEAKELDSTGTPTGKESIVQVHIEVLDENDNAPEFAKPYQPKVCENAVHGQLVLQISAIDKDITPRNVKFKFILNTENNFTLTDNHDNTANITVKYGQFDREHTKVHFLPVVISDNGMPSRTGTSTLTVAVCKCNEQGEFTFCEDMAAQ

T2: N-cadherin/Fc chimeric protein (human, UniProt P19022 160-724)
T2 construct: range 160-724; Bought from R&D Systems; also called N-cad/Fc; human N-cadherin/Fc chimeric protein; not shown: Fc region of human IgG1
T2 sequence (looked up): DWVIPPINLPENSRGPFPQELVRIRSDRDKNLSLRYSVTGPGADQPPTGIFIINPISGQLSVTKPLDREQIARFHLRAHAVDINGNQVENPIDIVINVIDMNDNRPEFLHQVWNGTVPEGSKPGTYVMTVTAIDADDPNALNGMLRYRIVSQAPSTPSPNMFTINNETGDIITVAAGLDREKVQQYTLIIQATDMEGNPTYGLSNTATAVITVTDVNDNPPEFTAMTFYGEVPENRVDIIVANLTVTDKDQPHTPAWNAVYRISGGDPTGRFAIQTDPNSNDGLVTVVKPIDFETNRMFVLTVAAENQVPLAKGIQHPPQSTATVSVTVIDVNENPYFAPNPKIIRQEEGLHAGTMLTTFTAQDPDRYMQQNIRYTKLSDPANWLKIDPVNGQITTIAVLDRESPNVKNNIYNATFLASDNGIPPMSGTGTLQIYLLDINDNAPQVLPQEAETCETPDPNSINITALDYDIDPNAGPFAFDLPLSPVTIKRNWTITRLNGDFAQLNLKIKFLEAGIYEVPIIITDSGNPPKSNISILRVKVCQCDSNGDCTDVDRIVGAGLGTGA

T3: E-cadherin/Fc chimeric protein (human, UniProt P12830 155-707)
T3 construct: range 155-707; Bought from R&D Systems; also called E-cad/Fc; human E-cadherin/Fc chimeric protein; not shown: Fc region of human IgG1
T3 sequence (looked up): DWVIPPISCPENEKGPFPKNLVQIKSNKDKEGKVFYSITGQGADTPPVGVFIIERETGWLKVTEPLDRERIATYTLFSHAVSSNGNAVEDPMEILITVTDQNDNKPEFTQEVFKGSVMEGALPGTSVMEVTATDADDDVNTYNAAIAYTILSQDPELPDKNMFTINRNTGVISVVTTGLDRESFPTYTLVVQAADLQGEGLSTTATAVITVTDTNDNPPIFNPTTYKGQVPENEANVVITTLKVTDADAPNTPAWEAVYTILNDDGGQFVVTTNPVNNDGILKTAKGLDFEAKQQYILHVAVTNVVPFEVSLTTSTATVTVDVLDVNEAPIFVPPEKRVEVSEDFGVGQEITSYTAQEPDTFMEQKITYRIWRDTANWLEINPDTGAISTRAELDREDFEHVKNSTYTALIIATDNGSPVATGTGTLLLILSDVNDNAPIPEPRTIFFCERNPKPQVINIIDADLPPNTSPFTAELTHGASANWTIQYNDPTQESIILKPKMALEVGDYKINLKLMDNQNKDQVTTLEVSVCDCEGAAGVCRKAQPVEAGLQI

B1: phage clone Ec 12-06 (peptide)
peptide: SWTFYWPDAQLG
notes: whole phage in the assay
B2: phage clone Ec 12-15 (peptide)
peptide: QWEWHYMAGYLA
notes: whole phage in the assay
B3: phage clone Ec 12-18 (peptide)
peptide: GWTVFYPDNLRP
notes: whole phage in the assay
B4: phage clone Ec 7 (peptide)
peptide: WTMCYPDTC
modifications: not fully specified; cysteine pairing not given here; also: displayed on M13 phage pIII
notes: whole phage in the assay
B5: phage clone Ec 12-10 (peptide)
peptide: EWTFQWNSYPAD
notes: whole phage in the assay
B6: phage clone Ec 12-19 (peptide)
peptide: EWDFFWPPTQTP
notes: whole phage in the assay
B7: phage clone Ec 12-07 (peptide)
peptide: EWTWVFPTTHTS
notes: whole phage in the assay
B8: phage clone Ec 12-a11 (peptide)
peptide: SWEWYIPYLNRT
notes: whole phage in the assay
B9: phage clone Ec 12-13 (peptide)
peptide: QWTITYPKPPAL
notes: whole phage in the assay; also called QWTITYPKPPAL
B10: phage clone Ec 12-a18 (peptide)
peptide: EWTYTFPTAHSI
notes: whole phage in the assay
B11: phage clone Ec 12-11 (peptide)
peptide: QWQLHWPASKQA
notes: whole phage in the assay
B12: phage clone Ec 4 (peptide)
peptide: WQMVLCPAC
modifications: not fully specified; cysteine pairing not given here; also: displayed on M13 phage pIII
notes: whole phage in the assay
B13: phage clone Ec 12-22 (peptide)
peptide: EWQYHWPTLQSR
notes: whole phage in the assay
B14: phage clone Ec 12-a13 (peptide)
peptide: EWFWSWPGYSNT
notes: whole phage in the assay
B15: phage clone Ec 12-a2 (peptide)
peptide: SWELYYPLRANL
notes: whole phage in the assay
B16: phage clone Ec 12-01 (peptide)
peptide: SWTWHFPESPPP
notes: whole phage in the assay
B17: phage clone Ec 12-a1 (peptide)
peptide: QWEIRYPWPSMG
notes: whole phage in the assay
B18: phage clone Ec 12-a5 (peptide)
peptide: AWTWSLPTLPQS
notes: whole phage in the assay
B19: phage clone Ec 2 (peptide)
peptide: WQFCYAQHC
modifications: not fully specified; cysteine pairing not given here; also: displayed on M13 phage pIII
notes: whole phage in the assay
B20: phage clone Ec 12-a4 (peptide)
peptide: QWTYYLPLTPRW
notes: whole phage in the assay

The first assay has as its target T1, VE-cadherin/Fc chimeric protein. Put plainly: phage ELISA. As for the experimental part: (§1) The binding of each clone to the cadherin/Fc chimeric proteins was confirmed by ELISA. Wells of ProBind microtiter plates (Falcon) were coated with either N-cadherin/Fc or E-cadherin/Fc chimeric protein (100 ng/well) or human IgG1 (which contains the Fc fragment) (100 ng/well). After blocking the nonspecific sites with TBS containing 3% BSA and 1.2 mM CaCl₂ for 1 h at 37° C., phage clones (10⁹ pfu) diluted in TBST containing 3% BSA and 1.2 mM CaCl₂ (100 μl/well). Non-coated wells were also used to exclude any phage that bound to the plastic surface. After 1 h incubation at room temperature, wells were washed 3 times with TBST containing 3% BSA and 1.2 mM CaCl₂. M13 phage without any insert were used to control the non-specific binding of the phage itself to the target. Monoclonal anti-M13 antibody conjugated to horseradish peroxidase (Amersham Biosciences, Piscataway, N.J.) was diluted in TBST containing 3% BSA and 1.2 mM CaCl₂ (1:2,000) and added to each well (100 μl/well). After 1 h incubation at room temperature, wells were washed three times with TBST containing 3% BSA and 1.2 mM CaCl₂ and once with TBS containing 1.2 mM CaCl₂. Horseradish peroxidase substrate, TMB (Sigma), was added to each well (100 μl/well and after color development the reaction was stopped by addition of 100 μl 0.5 M sulphuric acid to each well. The intensity of the color was measured at 450 nm.
(§2) The phage clones shown to bind to the N-cadherin/Fc chimeric protein by ELISA were also evaluated for their ability to bind to E-cadherin/Fc and VE-cadherin/Fc chimeric proteins. The phage clones shown to bind to the E-cadherin/Fc chimeric protein by ELISA were also evaluated for their ability to bind to N-cadherin/Fc and VE-cadherin/Fc chimeric proteins. The same ELISA protocol described in the previous section was used to perform this evaluation with the exception that the wells were coated with either 100 ng N-cadherin/Fc, E-cadherin/Fc or VE-cadherin/Fc chimeric protein (R&D Systems, Minneapolis, Minn.).
For B1, the binding result is given as “no binding (tested: 10^9 pfu)”.
The same measure, in the same setting: the same measure for B2: “no binding (tested: 10^9 pfu)”; for B3: “no binding (tested: 10^9 pfu)”; for B4: “no binding (tested: 10^9 pfu)”.
Take B5: the binding result is given as “no binding (tested: 10^9 pfu)”.
On to B6, for which the binding result was “no binding (tested: 10^9 pfu)”.
The same measure, in the same setting: as for B7, the entry is “no binding (tested: 10^9 pfu)”; as for B8, “no binding (tested: 10^9 pfu)”.
On to B9, for which the binding result is “no binding (tested: 10^9 pfu)”.
Consider B10, for which the binding result is recorded as “no binding (tested: 10^9 pfu)”.
Still for that read-out and setting: the same measure for B11: “no binding (tested: 10^9 pfu)”.
On the same count and under the same terms, the same measure for B12: “no binding (tested: 10^9 pfu)”; for B13: “no binding (tested: 10^9 pfu)”; for B14: “no binding (tested: 10^9 pfu)”.
For the molecule B15, the binding result was “no binding (tested: 10^9 pfu)”.
Same read-out and setting: as for B16, the entry is “no binding (tested: 10^9 pfu)”.
Same read-out and setting: as for B17, the entry is “no binding (tested: 10^9 pfu)”; as for B18, “no binding (tested: 10^9 pfu)”.
B19: the binding result is recorded as “no binding (tested: 10^9 pfu)”.
On the same count and under the same terms, the same measure for B20: “no binding (tested: 10^9 pfu)”.

The target in another assay is T2, N-cadherin/Fc chimeric protein. The assay can be described thus: phage ELISA. As for the experimental part:
as §1, §2
(An ELISA detects its analyte on a solid surface through an enzyme-linked reagent.)
As to B1, the binding result is on record as “binds”.
The same measure, in the same setting: the same measure for B2: “binds”; for B3: “binds”.
The same measure, in the same setting: as for B4, the entry is “binds”.
Consider B5, for which the binding result is on record as “binds”.
B6: the binding result is “binds”.
On the same count and under the same terms, the same measure for B7: “binds”.
On the same count and under the same terms, the same measure for B8: “binds”.
Same read-out and setting: as for B9, the entry is “binds”.
Take B10: the binding result is on record as “binds”.
In the case of B11, the binding result is listed as “binds”.
On the same count and under the same terms, as for B12, the entry is “binds”; as for B13, “binds”; as for B14, “binds”.
On the same count and under the same terms, as for B15, the entry is “binds”.
The same measure, in the same setting: as for B16, the entry is “binds”; as for B17, “binds”; as for B18, “binds”.
Take B19: the binding result is listed as “binds”.
On the same count and under the same terms, as for B20, the entry is “binds”.

The target in the next assay is T3, E-cadherin/Fc chimeric protein. The assay can be described thus: phage ELISA. On the procedure:
as §1, §2
Regarding B1, the binding result is reported as “binds”.
Take B2: the binding result was “binds”.
The same measure, in the same setting: the same measure for B3: “binds”; for B4: “binds”; for B5: “binds”.
On the same count and under the same terms, the same measure for B6: “binds”; for B7: “binds”; for B8: “binds”.
For B9, the binding result is “binds”.
The same measure, in the same setting: as for B10, the entry is “binds”; as for B11, “binds”; as for B12, “binds”.
Same read-out and setting: as for B13, the entry is “binds”; as for B14, “binds”; as for B15, “binds”.
The same measure, in the same setting: as for B16, the entry is “binds”.
As for B17, the binding result is recorded as “binds”.
On the same count and under the same terms, the same measure for B18: “binds”.
B19: the binding result is “binds”.
Take B20: the binding result is reported as “binds”.
